# Results from patent US20260243766A1 (CHILDREN S HOSPITAL OF PHILADELPHIA, published 2026).
# Target: T1, A*23:01/PHOX2B (human, UniProt P61769 21-119, limits assumed)
# T1 construct: The preparation of this complex is not described; also called HLA-A*23:01/PHOX2B complex
# Experiment: SPR
# T1 sequence (P61769 21-119 limits assumed, chain 3 of 2, other chains not shown): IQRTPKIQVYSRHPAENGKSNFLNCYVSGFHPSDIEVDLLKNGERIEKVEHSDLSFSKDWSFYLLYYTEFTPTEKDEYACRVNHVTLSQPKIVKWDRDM
binder,measurement,value
"10LH single-chain antibody fragment (Clone 10 (RU141-10) scFv) (scFv, also called Clone 10LH; scFV 10LH) scFv: SRNGGDGQSVLTQPPSVSVSPGQTASITCSGDSLGNKYACWYQQKPGQSPVLVIYQDSKRPSGIPERFSGSNSGNTATLTISGTQAMDEADYYCQAWDSSRGYTVVFGTGTKVTVSSQTGGSGGGGSGGGGSGGGGSEVQLLESGGGLVQPGGSLRLSCAASGFTFDSYAMSWVRQAPGKGLEWVSAISGYGGSTYYADSVKGRFTISRDNSKNTLYLQMNSLRAEDTAVYYCAKYTYFLDAFDIWGQGTMVTVSSS",Kd,~20 µM
